From the DeepSol protein solubility set

Test: soluble on expression in E. coli; label from the status in PepcDB or PDB records

Sequence	soluble on expression in E. coli
MSFNPDYESVAKAFIQHYYSKFDVGDGMSRAQGLSDLYDPENSYMTFEGQQAKGRDGILQKFTTLGFTKIQRAITVIDSQPLYDGSIQVMVLGQLKTDEDPINPFSQVFILRPNNQGSYFIGNEIFRLDLHNN	not soluble
MSFVECPYHSPAERLVAEADEGGPSAITEILKELDECYERFSRETDGAQKRRMLHCVQRALIRSQELGDEKIQIVSQMVELVENRTRQVDSHVELFEAQQELGDTAGNSGKLEHHHHHH	not soluble
MSFVVIIPARFSSTRLPGKPLVDINGKPMIVHVLERARESGAERIIVATDHEDVARAVEAAGGEVCMTRADHQSGTERLAEVVEKCGFSDDTVIVNVQGDEPMIPAVIIRQVAENLAQRQVGMATLAVPIHSAEEAFNPNAVKVVLDAEGYALYFSRATIPWDRDRFAKSLETVGDTCLRHLGIYGYRAGFIRRYVSWQPSPLEHIEMLEQLRVLWYGEKIHVAVAKAVPGTGVDTADDLERVRAEMR	not soluble
MSGASSITATEPYRDVQIRPAVAPDVARVAAIDEAATGEAKPRYWQSLFENFSQARAGCRAFLIAELKGEVVGFICGEVRDFEFGAESCGWVFALTVDPAIRVNSIGTQLFEEICQIFTQAGVRKVRTMIEHDNQLVMAFFRSQGLMVGRFIGMEKNLD	soluble
MSGKTKRLMVMAGGTGGHVFPGLAVAHHLMAQGWQVRWLGTADRMEASLVPQHGIEIDFIKISGLRGKGLMAQLTAPIRIYRAVRQAQKIMRDYQPNVVLGMGGYVSGPGGLAAWLCGVPVVLHEQNGIAGLTNRWLARIAKKVLQAFPGAFPNADVVGNPVRTDVLALPLPAVRLSGREGPIRVLVIGGSQGARILNQTLPLVAASLGEQITLWHQVGKGALPEVSQAYQQAGQAGHLVVEFIDDMAAAYAWADVVVCRSGALTVSEVAAAGLPAIFVPFQHKDRQQYWNALPLEKAGAAKIIEQPQFTATSVSSLLASWDRATLLSMAERARSVAIPDATERVAAEVVAASKSA	not soluble
MSGLIPAHGLSFRVDASTLTGQSSLLRASLGLDDVHLQVSAITEVKSVFVADAFDRGLVTVTADKEIAIWFPPNSATEQELFVRTLSAAMNGDGPIPQPVPHLDFVAVDVETTNSDWGSICQIGAAKVRDGHVVETKEWLCTPPGDLNSFDEANIAIHGITADMVATAPSFAECYDQFADFAGDLPLAAHNAQFDMTAFLRATQAADIRLRTTNFGCSLAAARAAHLPIANHKLPTVSQHLHVELRNHHNACADAEACAGILIALTQRLNTEITDFTSAFNMLGFHTGQLSDARVYPVLKVRGASSTPASPDSAAPAIQTPPAEKPRKATKAARAPWSKVATPETIPDPNPDADPQGRLFGQSVTLSGDFAPYDKGELWAGIANQGGIIGKNVTKKTTILVCGPWDKPTSKQKRAEELRAKGQEIDLWTQEDLFAQLGLNPEDEQPPF	not soluble
MSGRYNMNIILGATGQVGSMLVDNLLGKGQPVRAVVRDGLKAQGLKNKGVEVKIADYLDVEALKKAFQGGSSVFLLTPENPESENFINEIQRIMSNYREAVLSSGISKIVGLSSMGAQHKSGTGNLMASYMLEHAFSDLEIEQVFVRPAYYFSNWLGYLELVREYGILPTFFPPELELPMIAPPDVAGFLSDVMTCKTQQERIYEISGPHDYSSSDIAKIFGDVLNKNVTLQQVLPEEWENTLIQAGFSKDGTRNLMLMTKAVIDGKTKNETTNRLRFSTNFKNYLQSVILNMS	not soluble
MSGSDDDATQISREDEELAYEIYFWIVRCICEKGVVKISELRKIYQSTVVKDRSVQFRPLPGVLKAVNENLLHWQGWNAVIQDDRLTYVNVNGDAPNEVRASETERTLGLLKNVLMYVFVATKPQSKHPGVAQEDLMSYMEASMSTHSDRKLSLDHMEFLKKLIAPNARSEFIKKGYLAFTKSVNENDEEVFRYEWGPAARQTVDPLALVQTFQQLTGMKPEMLKEQTERANELKAEQVAAVTRGGVLRTRGQ	not soluble
MSHAVARLRAERLARSNKPFIARGSRAERCPDCRVIATHCLCAWKPRVQADAGVCLLMHDTEPLKPTNTGWLIADLIEDTWAFGWLRTAVDERLLALLDDPRWQPYIVFPGEFVAQERVVSEVVREPGKRPLFILLDATWTEARKMFRKSPYLDRFPVLSLQAEQMSRYRLRRSKRDDHFCTAEVAAMCLDLAGDGQASQALDAYLDVFSLHYLSGKRRLPLDEQDDTHQRLHTFLLEHHHHHH	soluble
MSHINLYSLPTDHKNMIRCRYCEKIYKIDNGSSGFIRHLRCKHPNVLYQMGAISNGKEYNLITKQETLSIDTNNEINLRDDDDFMMMKEFSSNQILVNFLSQLDLPTNDVNRVLGKRHRISPTPTINSSVTPNEEHEPDLKMFNSGDTLQNFLIDIDNHIRQKNQESQEAIGTGEESTSASALDMPSSQKESREPSPNSSMLDETNGGTETGDSSPTPFNPARPFGCVICPCSFPRVKDLTIHVTSVHRTRFRCNTCLAEFVQPQHLEHHYSISHAGTSTGTVVNT	not soluble
MSHQEQQEQEIEALEAIYSEEEIHVASRDYPNIELSIQLKSNQYEDPTDDDFDVELGIEFTENYPDEIPIITLNGIEDAFTAERIAESIDKLRSVAEENLGMVMVFAIVSALQDEIGELVDVKKRAKEEKVEIEKEKKEAESRKKFEGTVVTPDTFRAWKDRFDEERKAEIDAAEKERLASLAGRLTGRQLFLRDATLNLSDVTLIGAQDEVEIDESLFDNEELEGLEMDSEEEEEDDEE	soluble
MSIIEDNKISFVIPTINEEKTIGSVIDGIHENFPNAEIILVDTNSTDKTKEIAKSKGATVIEEPRKGYGRAYQTGIPAAKGDIIVCMDGDGTYPTDIVKPLIEILILDKVDFISCDRITFRTSTNYTTLHYVGNMVLNLTIRILFKVRMVDSQSGMWIFRSELYKKMKNLGYGMSFSQNIKIEAVRHGVFIEIPIRYGVRITKPKLKTWHDGFHNLFALFIKRVSELEHHHHHH	soluble
MSIKIDLNKCVGCQKCINICPGSLIDKNNDGKAYIKYPKDCWGCTACLKECKFKAIKYFLGADIGGNGSYMYVSEKGEELEWHMINEDGKEKIITTSRKESNKYLEHHHHHH	not soluble
MSIKIGLLGFGTVASGMPFLLKENKDKITAASGTKLEIAKVLVKDDDEKKRLLAAGNDFNFVTNVDDILSDDDIAIVVELMGRIEPAKTFITKALEAGKHVVSANKDLIATHGKELIRLAQDKGVAFYYEAAVAGGIPILRTLANSLTSDKVTRILGVLNGTSNFMMTKMVDEGWTYEAALKKAQELGYAESDPTNDVEGIDAAYKAVILSQFGFGMTIDFDQVVHQGISSITPDDVAMAQQLGYVIKLVGSVEETPSGIFAEVSPTFLPKSHPLASVNDVMNAVFVESIGIGESMYYGPGAGQKPTATSVVADVIRIARRIKDGNVGKCFNEFIRETKIAHPDDVKSHYYFAINTADEKGKMLRLAEIFNSEDISFEQVLQQKANGEQARVVIITHSLSKSQLVNVTEKLQAVADFKLLNTFKVLGE	not soluble
MSIRDERKQQSRQALLDAALQLSTGGRSFSSISLREVAREVGLVPTAFYRHFQDMDALGQELVDQVALHIKSLIHQLGQSYLQQVSTHPDSSIELFFQAINHSPLEWQFMIAERWGGSAAVRQAIAREIEDLIEDLATDLRKLPMFEHIQDSQDLKVLSTILINLSFTWAMTWLSLASQYQDAALSQHQQQFVENANTQIRLMFRGVANWG	not soluble
MSISFEKLRITLKSVGVPVTRDKAEKGTDYPYIVYSNVSQGKKMASSKVHRRMPYYQISFYTTGTEKDLIALENALEEAGIPYTDFVGIQGDENDDTVTNFYTYVRCIEDGK	soluble
MSISGIGSYAASMLTPSRGSAGTSASAAATAADNTPATKSGSGGVQKTDFTQMTHKQLFDWVNSKIASGEMSFDESSTFISMTVSMPVDGSSMAPDDKQPVNFMQSVRDGMERALQTNDSDLFARLQTALHTMQRSQGEVRGVNMTV	not soluble
MSKDDPINSIFFEHQEAALCAQHALNMLLQDALYKWQDLRDLAIQMDKMEQQILGNANPTPGRSENMNESGYFSIQVLEKALETFSLKLTNIENPAMVDYKNNPLTARAYICNLREHWFVLRKFGNQWFELNSVNRGPKLLSDTYVSMFLHQVSSEGYSIFVVQGVLPRSDADDLISLCPVVPPKVTPKKEQKLEKVMTKFFNTVGKRLGGGSGAPPDSQEEKDLAIAFAMSMETKDGSEVSRSSAEIDEENLRKAIELSQAPGPSEPAEIPLLTRSRSSTPPGASEPFSNAEQQRRDRQKFLERFEKKKEERNDEK	not soluble
MSKGHSLQDPYLNTLRKERVPVSIYLVNGIKLQGQIESFDQFVILLKNTVSQMVYKHAISTVVPSRPVRLPSGDQPAEPGNA	soluble
MSKILDVQGIVKRATELNDFGHLLEHVPYAKFIGMKVERFGDELIFKLPAKDDNIGNPILPAIHGGVIAGFMEMSAIVQLMVFMQTAKVPKVVDFSIDYLRAGLHKDSFAECRITRQGRRVANVSINCWQTNRKQLIATARAHFLIDLEHHHHHH	not soluble
MSKILGDGHVRKTVDLPDSALRLNYEKKYYEPENGDHLIFSAQLQNGRYSALTAIKPTDLLQVYGSLSYLDEQLKFGHVSIHGRTAKVFVPFSTRTTNGACWYGQGAYIDKPYLIYIFRQEEAHGCKFVAWAIYDDTRKTTSVPPTPTDIQNTSHMKKLGPPTAVQRQSDHQSVEFVQAQSGVIYDISDNYVISVTSPTCQNVEFAPTLYESWMRPGRFITFDGRRVSDVKTSKLMGSNPEDMGSIYPIRKLTPLTITISAIMNKVSHGKAGWAWNDHVGRIYIPWNSTDRYMQASKPLPFTPVHLEIAYNGKHDDIPWVACGSSLVEEQEYDQIVDENSRMLKTEDNWKIQSVVDGPENPSIFLAKFDEKGLKRTAFAKVIDLNSGNIPPTGTLVRITYYAQERHGRHAMRCVLVTTMEKVERFPKVHSIINGSGEKHFPMMYEQPIPKKQVIPPTPVQRVQAAPPPAKNCWNLKNLGSPAAQPSVQDFPTVTGDEDDNIFVEETNTALPPPGFVPPGLVAPPGLPPPPGLPAVPLSTDLAYDFKMTSSIPMTNGLGHLRLGSVWSGTPVEAKQEEPLHYFQQQDNFLGSSFGPISSTFSADNFFTELTASISQPSTSSVVNSGPISDLRNTQSEASSPGLKSDGNEPVEETNCWSSLEAATNGNNPFNSSFSYGFPHMDLPIYQKMMPNANDILKPMPLVEEELKPATSATHSEADSCTCGTEQLIWDLWQNPHFIAAFAASDPETFKRVDAKRKLFSLSNHR	not soluble
MSKIVEVSKSPYAKLKTIPVGSVRVNGFMGKYFETLVNVTLPTQYDLLENTGRLDNFRIAAGKMEGSYKTLFPFDDTDVYKWAETVSFALANRKLPELEKILDSVIEEVKAAQDEDGYLGTYLSGDRKKERWTNLAWNHELYNAGHLIQAAVAHRRVTGKNTLFEVAKRFADHIYNTFGPEKKEGAPGHPEVEMALVELYRETGDRKYLDLARYFIYARGKGLASVPRNPGPEYFIDHKPFVELEEITGHAVRALYLCSGATDLYLETGDEKIWQALNRLWENFVTKKMYITGGAGSRHDWESFGEEYELPNRRSYAESCASIANFMWNFRMLLATGDGKFADVMEQVLYNGLLSGISLDGKHYFYFNPLEDYGRTRRQKWFDCACCPPNLARFIVSFPGYMYTTSDDGVQVHLYEKSTARLDFKGSVVEIEQETDYPWSGEVAFTIKTDIEEPFSIYLRLPSWADDFVLRVDGKAVIAKPQNGYVKLSQSWKGKHTVELSLPMKAVFIEAHPFVRDDLGKAAVKRGPVVYCIEQADNPDFHVWTLVLNSESLKEEKGKILDREAVFLKGTGRALDISEWEGKLYRKLSEVREKTVEFTLIPYHMWANREPGAMAVWLKR	soluble
